± gives the standard deviation of the averaged measurements.
Test system: ATP
Experiment: switch fluorescence ratio, 500 uM ATP over buffer (Cy3 cluster intensity, sum of 5 cycles each) (fold (ratio)); higher = stronger signal-on switching upon ATP binding; sequences stand for … in TCGTCGGCAGCGTCAGATGTGTATAAGAGACAGTTTTTTTTTTTTTTTTTTTTTTTTT…TC
Details: aptamer strand: ATP DNA aptamer (quencher-CACCTGGGGGAGTATTGCGGAGGAAGG + anchor), 100 nM annealed; ATP concentration: 500 uM
Procedure, shortened: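 Exposure to 500 uM ATP lasted 15 min at 22 °C before imaging, and a selection-buffer image was taken beforehand, for Cy3-labelled switching-strand clusters on a modified Illumina MiSeq flow-cell annealed to 100 nM quencher-labelled ATP aptamer. Five buffer/ATP cycles were run with NaOH stripping and re-annealing between them. The fluorescence ratio per cluster is summed target-cycle over summed buffer-cycle Cy3 intensity, averaged per switch-domain sequence. Clusters outside 100-1000 RFU were excluded.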

Sequence	switch fluorescence ratio
TCCTCGGGGG	0.989 ± 0.027
ATGAGGTTGG	0.973 ± 0.055
AATGCCTGGT	0.984 ± 0.022
TTAAGGAGGA	0.981 ± 0.03
GTAATTTTGG	0.983 ± 0.037
CGTATAGGAG	1.02 ± 0.045
TAACAAGGGT	1 ± 0.016
TAGTTCGGTG	0.988 ± 0.042
AGGTGTAGGG	1.01 ± 0.025
TTGGAATGTT	0.952 ± 0.043
ATTGGGGATT	1.013 ± 0.009
TTTAAAATGT	1.12 ± 0.25
TTAAACGC	1.03 ± 0.012
TAACTATGTA	1.02 ± 0.034
GTGACCGGGA	1 ± 0.027
GAAAAATTAC	1.49 ± 0.75
CGCTAGGGTG	1.115 ± 0.0032
CTGGAGACAG	1.07 ± 0.018
TTTGACGACT	1.01 ± 0.025
AATCGTCAGG	1.01 ± 0.012
GGTTGACGCA	1.01 ± 0.03
TTTCCATCAC	1 ± 0.042
TAGGAGCGTG	1.02 ± 0.044
GTGTTTTCGT	0.993 ± 0.03
GCCAGAGGGG	1.19 ± 0.34
TGGCCGGTGT	0.991 ± 0.032

Sequence	switch fluorescence ratio
ATTTGCCCAT	0.986 ± 0.019
AATCTTGAGG	1.01 ± 0.028
GGGTACAGGT	1.18 ± 0.2
TATACGTTTT	1.12 ± 0.14
TTGATTTAAT	1 ± 0.028
TTCACGGTCG	1.03 ± 0.024
CTCAAGACGG	1.06 ± 0.012
CGAACTGGGT	1.03 ± 0.028
GATGTACAGT	1.035 ± 0.0072
TGCGAGAAGG	0.999 ± 0.011
CCATAGGATA	1.0259 ± 0.00058
TTGTTTGCGA	0.999 ± 0.01
TGGGGACGGG	1 ± 0.046
TTACGGATGG	1.03 ± 0.065
CCACTGATCG	1.02 ± 0.022
AGGTAGGGCA	0.9762 ± 0.0049
TTTCGGATTT	0.983 ± 0.012
GAAGTAAAAA	1.01 ± 0.026
GCCTATGCAA	1.48 ± 0.021
TCATGGGAAG	1.02 ± 0.077
GTTTTAGATA	0.993 ± 0.031
AAAGCGTGGA	1 ± 0.011
TACCCGGGTT	1.11 ± 0.2
GCGGGTAGCA	1.04 ± 0.029
ACCATTTGTC	1.06 ± 0.094
AAGGGGCACT	1.02 ± 0.047

Sequence	switch fluorescence ratio
ACGGGGGCCG	0.993 ± 0.041
GTTTATTATA	1 ± 0.011
TTGGGGAAG	0.9853 ± 0.0061
CAGAGATCAT	0.993 ± 0.019
AGCGTTGGTG	1.03 ± 0.031
GGTTCAGCGG	0.959 ± 0.035
TCACATGGGA	0.976 ± 0.011
TTTAGAGGGT	0.988 ± 0.013
ACGGGCACTT	1.12 ± 0.041
GTCTAAACTT	1.01 ± 0.013
AGAGGGTGGG	0.994 ± 0.04
GAATTAAATG	1.037 ± 0.0019
ATGTGAGGGA	0.991 ± 0.02
CGGGTAAGTA	1.03 ± 0.097
CAGTTCCCGG	1.02 ± 0.063
TACAAGCTTT	0.992 ± 0.024
TGTATCGTCG	0.944 ± 0.023
TTTTGGGGGT	1.03 ± 0.096
GGTTTTCAGT	1.03 ± 0.045
GTCGTAGTAC	1.1974 ± 0.00024
CAGACCGTTT	1.01 ± 0.018
TTAAAAGAGC	1.02 ± 0.035
GGGGGACTGT	0.938 ± 0.057
CATTTGACGG	0.995 ± 0.024
TTATAACTTT	1.02 ± 0.028
ACGTGAGGTT	1.01 ± 0.059

Sequence	switch fluorescence ratio
AGGGGGTCTA	1.013 ± 0.0014
AAAAGCCGGG	0.979 ± 0.16
TGTGTCATGG	0.986 ± 0.011
TAGGGAATGA	1 ± 0.016
ATGACAGGAT	1 ± 0.023
TTTCGGAGA	1.11 ± 0.17
AAGGGGGAAG	0.971 ± 0.015
CGTGTGTATG	0.997 ± 0.0085
CGCCGGACAT	1.04 ± 0.0027
TTTAAAAGTC	1.07 ± 0.086
TCAGCGGGGA	1.001 ± 0.0066
ACTCTTTTAC	1.291 ± 0.0056
CTGAACTTTA	1.04 ± 0.043
AATTGGGATG	0.975 ± 0.034
AATAGAATTA	1 ± 0.018
AATAGGGGTA	0.987 ± 0.029
TTTTGCGGCG	1.25 ± 0.29
TGTTTTTAAC	0.983 ± 0.015
TTTTCTAGGT	0.982 ± 0.021
TTGGGGATTT	0.997 ± 0.029
GCCGAATATG	1.01 ± 0.015
GGGGAGTCTT	0.972 ± 0.057
CTTTAGTCAG	1.01 ± 0.016
ACGAGGTGGG	0.987 ± 0.017
AATGTTATGG	0.9801 ± 0.0031
TACTGTGGTC	1.025 ± 0.0053

Sequence	switch fluorescence ratio
AAGCAAATCT	1.18 ± 0.04
TGCCGGAAGA	1.02 ± 0.029
CGTGGCATTT	1.03 ± 0.07
AGTAAGGGAG	1.01 ± 0.082
ATCGAGAGGG	1.01 ± 0.04
TGCACGGCTT	1.13 ± 0.03
TAACGAGATT	1.02 ± 0.026
AAAGAAAGCG	0.997 ± 0.042
ATCCGAGGGG	1.03 ± 0.05
ACTAGTCAAA	1.02 ± 0.012
GATAAGTCGG	1.009 ± 0.01
TTATAAGAGG	0.979 ± 0.0047
TTGAGGTACG	1.03 ± 0.082
AGTTTAGGAC	0.985 ± 0.031
CGAGCCTTGT	1.01 ± 0.04
TTTGCGGACC	1.05 ± 0.025
GCGGGAGTCC	1.13 ± 0.2
TCGTAGGGTT	1.01 ± 0.04
GGGGCGCGGG	1.03 ± 0.033
CAGATGTCAA	0.993 ± 0.013
GTTTGGGGAG	0.977 ± 0.018
GACATAAATG	1.03 ± 0.12
GGGTTTGTAG	1.01 ± 0.056
ATGGATCCGG	1.03 ± 0.083
TTCGTGGTTT	1.032 ± 0.0055
TATAGTCTTC	0.959 ± 0.027

Sequence	switch fluorescence ratio
GCGATATCTT	1.04 ± 0.029
AGCCGATATT	0.967 ± 0.015
GTGGGATAGG	0.985 ± 0.038
ACAGACAATG	1.02 ± 0.045
GCTAGGCCTC	1.01 ± 0.038
CGATGTTTTC	1.03 ± 0.073
AAAGAAGGGC	0.938 ± 0.05
CGTCCGGGGA	1.56 ± 0.075
TTACAATTTT	0.985 ± 0.019
TTTTAAGACG	0.979 ± 0.069
GGGAAGAACC	1.02 ± 0.013
GACGATCCTG	1.08 ± 0.043
TTTTATATAT	1.014 ± 0.0079
GAGACTAGGT	1.04 ± 0.025
CAAGTAAGTT	0.9884 ± 0.0063
TTGGGGTAAG	0.971 ± 0.03
GAAGGTTCAT	0.961 ± 0.022
AAGTTTAGCA	1.01 ± 0.021
GGAATGTAGG	0.99 ± 0.027
TCTTTATTAA	0.989 ± 0.011
TCTGTTCATG	1.001 ± 0.0081
AGTATTCAGG	1 ± 0.027
ATTATCTACT	1.04 ± 0.026

Reference: the supplement of paper PMC10126150
